Test results: the DeepSol protein solubility set

Test: soluble on expression in E. coli; label from the status in PepcDB or PDB records

Sequence	soluble on expression in E. coli
MGSDKIHHHHHHMTAVKHAFTELPTIDIRDLAGDDLARRQAVADAIGRAAREVGFFYITGHGIDPALIAGVREAAKQIFALPMEEKMNYYIGHSKSHKGYVPEGEEIYGSGKPDHKEAFDIGFQAADDHPLVLAGTPLIGANEWPDLPDFRARVLAYYDAVFALGHRLFDAFALALGLPEGYFKPMVTCPPAKLRLIHYPFDASVEDVPGIGAHTDYECFTLLLADQPGLEVLNEESVWIDAPPVKNAAGEEAFVINIGDMLEVLSAGTFVATAHRVRKVPQERYSFPLFFACDYHTLIRPLPTFLAAGEAGEYQELSIGEHMWSQALQTYRYLREKVNRGELQLPERARGTNTFGHLKKQAQQKNP	not soluble
MGSDKIHHHHHHMTDDQIHQTDWLQRGRDVLDIEAEGIRAVRDRLGPSFESALALLAGCRGRVVVTGLGKSGLVGRKLAATFSSTGSPAFFLHPVEGAHGDMGSLKADDVVIAISNSGETDELNAILPSLRAIGTPIIALTGRADSSLGRGADIVLDCGVPREACPLGLAPTASTTAVLALGDALAVCLIDWKSFTENDFLRYHPGGSLGQRLRLRVAELMHTEGIPVVNEEAVCEEAVLALDKGGFGAVALTDGGGRLTGILTDGDVRRAVLRGTYGPRVGVTHIMTRNPRFARQTQSVAELIDIMEQKAITVLPITDDDHRLVGLVHLHDLLGKGGVTFAG	not soluble
MGSDKIHHHHHHMTDLADLTCVGPGTPMGTLMRQYWVPAAKSSELKRDGDPMRLMLLGEKLIAFRDSEGRVGVLDHRCPHRCASLFLGRNEESGIRCVYHGWKFDVAGRCVDMPSVPPHQDFKDKVHAKAFRTAERNGLVWVYMGDAAEPPPLPAIEANLVADCEIWCLQRDCNWLQALEGDIDTSHVGFLHVGSLKPDDLADDHPMRPTVLDRAPEYAVTNTAWGTMYGGYRPNDDGQRSWRVAHFMFPFWTQTPNNRFSSRAIARAWVPMDDEHSMLFDITCGVDEGNPAYSSTRKTGEPLFAPFEYAPATTDWFGRWRCVDDRRNDWGIDRELQRNGSQYTGIPNITMQDQAVTESMGPIIDHSYEHLAPTDQMIARTRRRLLLATQALSEQGTLPPGAQDSDVFFGARAGSFLCDPGLPFETAYATQLETATRWAGDKVVS	not soluble
MGSDKIHHHHHHMTDLEHQVFTQVRAIIANEEQVIGRRGILIPLKKAIIADGDIRNVIDIVSSDPALAAHLLWRSNSAANASVSSKNRSLKDALVRLGQVNIYRYAFTFYLKERLDELPQPYKKLVYGYWALTESIATDAVDSLHHMEGVNINPDEVQTLALFSVFGEIIALTAFAYLNAESEQSFPLSIIKSLIDNQKQTLTLEAFESLGLDEELREEFMIAHNLRQTRNPDSPGLVLRRVLSMRNQLLNPL	not soluble
MGSDKIHHHHHHMTDPRILSLQQAVPALRLKTEPADLEHYGRDWTRRWTPNPLAIALPGSVEEVQAVVRWANTHAVAVVPSGGRTGLSGGAVAANGELVLSLERLNKPLAFDAVDRTLTVQAGMPLEAVHNAAREHGLVYPVDFAARGSCSIGGNIATNAGGIRVIRYGNTREWVAGLSVVTGTGELLHLNNALVKNSSGYDFRHLMIGSEGTLGIVVEATLRLTDPPPPSNVMLLALPSFDVLMQVFAAFRAQLRLEAFEFFTDRALEHVLAHGAQAPFAEVHPYYVVTEFAAGDEAQEAAAMAAFEACMEQGWVSDGVISQSDAQAAQLWRLREGITEALARYTPYKNDVSVRISAMPAFLAETQALLHDAYPHFDVVWFGHIGDGNLHINVLKPDATSQADFITACEQVTKLLAQSLQRFDGSISAEHGIGLVKKPYLWSTRSAAEIALMRGIKHVLDPHLLLNPGKLFDMDEVPGATPAG	not soluble
MGSDKIHHHHHHMTDVHASTQALKPARLLADSPSRFPGESAEYRRARNDLLVEEIELRRHIERVAAQRRALPAGGVVPEDYRFMGEAGPVALSEMFGAHDTLVTYNWMFGPQRVRPCPMCTSLLSAYDGEMPDILQRVAFAVIARAPIERLVAFGKERGWRHLRLYSSGGNSFNRDYAAEDPAGDDHPAFNVFTRSGGTVRHFWAEEMGPSTADPGQDPRGAPDVMPIWTVLDMTPGGRGTDWYPKLEYDTAPG	not soluble
MGSDKIHHHHHHMTEEVPSMDTAPSVGDVREYWNRNPLLSHELASPGSPAFFASLDTAKREDSDRFAMDYWEFGQWAGQRVLDIGCGPGWLTVQYARGGAQVDSVDLTPRAVELAQAHLALHGQSATVREGNAEELPFPDDQFDLVAASGVLHHTPDTQATFREAFRVTKPGGQGKITLYRKGILHHPAVFAMTRIAMRLFGVKHPGADLGKNSSDVDDFIRRYDGDGNPVGIGKTDADWAADLAAAGWVVQGHEVHFFPRRFLPCARLIPVWLHEFLDTRLGTMVYFRLRKPIISGK	not soluble
MGSDKIHHHHHHMTEGLTIGIDVGGTNLRFGVFRGNELLDSTRSEVDLREKCRQAPDPEGAAALVTTLLTEGIADLRRHHPNIARVGIAFPGFIDDDGVLLQSPNIPQLIQFDLQTAVGAACQLPVLVENDANAAGYGEFWEERQEHPELQNLLYVGLGTGVGGGWIHQGRPWRGDHGSAMEIGHIIVVPGGRRCGCGNQGCLEQYASARGVQSTYVELTGTAPDAMVIAQMAGDAHSEAASAFRMAGGYLGQVLAHVVKVTDVAVVRIGGGMSAAWDRFAPAMLQRLDADMIPALRGNVEVKRGNDDDLAGMRGAALLADQEFLHS	not soluble
MGSDKIHHHHHHMTEGSQQKRVVVVGAGWAGLGATYHLAKQGYDVTLLEAGPYPGGLVAGWQTTGGKSVEAGIHGFWYPYRNIFALINELNIHPFTTWTRSAQYSPAGLEVESPIFQDLPRLPTPLGTFIYTQFQRLPLIDRLSALPLLYAVVDFDNSDAAWRRYDSVTARELFKDFGVSARLYKEAFEPMLLVGLFAPGEQCSAAATLGMLYFFILAHQADFDVVWCRGTVGEKIFRPWVERIEKAGAKVLPKHRVTDLIIDSNNQATGVVCGNEVFDADAVIFAVGITGMKKIVSSSPSLQSRAEFRNLHNLGAIDVLATRLWFDRKIDIPRPSNACFGFDNTTGWTFFDLNALHDEYKNELGTVIEADFYHANQFLNWSDAEIVATVQNYLTTCVPGFAQAKVIDSSVIRLPQAVTHFAPGSYPYMLPAKTSFDNVFMSGDWIVNRHGSWSQEKAYVTGLEAANLVVSHLGEGTPVEILPVEADETHIQVARSLNQTVRKLGKFILPNFWLP	not soluble
MGSDKIHHHHHHMTEITTLSQFLTTAKTQFQVYELGRRVQHIDMLAFHQIESLVTPYPYPIQGHAQFAVVFWNESQQHFIWFLKLPLDEQGLLSPAPRSQFIEMVLTALGQDPTQPLTDEQQDRLANNPFSFKPSQEKLSVFNALVRKQLGLSASIQYEFAMQYLSGQIAPSEWQHIGMQGLSDVCVRLGELDHEQHILASFDQAAIEVQIALCQCLEHLQLTEAIAMKIFSKFITAPNEYQAYYLRALASQTELSQQALLHLQQTDRLDANALISIAGRNWPILKQALSRSIYLEALALQPQAFFNQIFADIVAIPNLRNHLLGELRNPNRSVQLSQAIGGLFKAASK	not soluble
MGSDKIHHHHHHMTEKATLAKQILHFNETLSSNSMDLPAGYRVINPYEGDQKELVRNITTRFYQKYYNDTKPRRIIFGSSPARRGSAVTGVPFEDAKHLQSETGIFIDTFYINQSSSDFLYDVMNEYGGCEQFYSDFYMNFVCPLGIVRINAKGNEVNCNYYENKQLREALMPFIIESIRSQIDFGMDTSVCYCIGSGENFKFLSRINEEHHFFETIIPLEHPRFIMQYNSKNKDTYMEKYLCALKI	not soluble
MGSDKIHHHHHHMTFEEFKDRLFALAKKNGVEVQISFLETREFSLRLANGDLDQYTDAGKFNVEIKVLKDGKTGTFRTQVLENPEKCFEEALSNLQVKDSEEKEYFFEGGKEYREMETYVGRFEKLSVKEKMDMAKKAHESAAKDERVVMVPTVMYKDMVIKKIITNTLGLDVESQMDGGFLFAMAIARDANPRSGSWYELARTPEDLNPEEIGKRAAEEAISLIGSKTIPSGKYPVLMRNTALLDLMEMFIPMISAENVQKNLSPLKGKLGEQVGNPAVSIKDLPYHPKGLSSTPFDDEGVPTTEKFVLENGVLKTFLHNLKTARKEGVEPTGNGFVGGIRPVNLMLMPGEKSFEELLKEMDRGVVITEVEGMHAGANSISGEFSLFAKGYWVENGEIAHGVEDITISGNFLDLLRKIVLVGNDVKVSQHTIAPSVLVEVLDVAGK	soluble
